# Measured values: patent US20220033501A1 (SHANGHAI PHARMAEXPLORER, published 2022)
# Numbering of substitutions follows the chain as printed.
# T1: human TIM-3, full length, on cells (human, UniProt Q8TDQ0 22-301)
# T1 construct: Also used here for native TIM-3 on PBMC in the functional rows; also called CHOK1-hTIM-3; HEK293-h TIM-3
# T1 sequence: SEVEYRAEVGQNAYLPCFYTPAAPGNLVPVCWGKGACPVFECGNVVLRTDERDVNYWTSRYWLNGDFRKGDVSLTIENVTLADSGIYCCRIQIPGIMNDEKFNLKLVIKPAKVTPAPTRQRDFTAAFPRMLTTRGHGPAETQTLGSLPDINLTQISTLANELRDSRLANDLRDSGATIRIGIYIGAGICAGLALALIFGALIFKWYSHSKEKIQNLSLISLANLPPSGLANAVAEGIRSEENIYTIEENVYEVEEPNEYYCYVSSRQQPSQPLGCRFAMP
# T2: human TIM-3 extracellular domain protein with hFc tag (hTIM-3-hFc) (human, UniProt Q8TDQ0 22-200)
# T2 construct: not shown: human IgG Fc fragment (hFc) of the pCpC vector
# T2 sequence: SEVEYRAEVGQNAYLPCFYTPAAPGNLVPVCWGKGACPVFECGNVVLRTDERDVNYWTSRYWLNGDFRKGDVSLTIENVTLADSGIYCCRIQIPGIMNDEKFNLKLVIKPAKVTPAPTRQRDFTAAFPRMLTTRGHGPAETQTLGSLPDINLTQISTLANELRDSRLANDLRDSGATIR
# B1: 57F4E5 (TIM-3 antibody purified from hybridoma, chimeric antibody of Example 2) (antibody, V domains shown)
# VH: EVQLVESGGGLVQPGGSLRLSCAASGFTFSSYWMSWVRQAPGKGLEWVANIKQDGSEKYYVDSVKGRFTISRDSAKNSLYLQMNSLRAEDTAMYFCARDSNFFDYWGQGTLVTVSS
# VL: ETVMTQSPATLSVSPGERATLSCRASQSVSSNLAWYQRKPGQAPRLLIYFSSTRATGIPARFSGSGSGTEFTLTISSLQSEDFAVYYCQQYNNWPLTFGGGTKVEIK
# notes: From hybridoma of Harbour H2L2 transgenic mice: human variable regions, rat constant regions
# B2: 18D2H2 (TIM-3 antibody purified from hybridoma, chimeric antibody of Example 2) (antibody, V domains shown)
# VH: EVQLVESGGDLVQPGGSLRLSCAASGFTFSTYWMTWVRQAPGRGLEWVANIKQDGSAKYYVDSVKGRFTLSRDDAKNSLYLQMNSLRAEDTAVYYCARGSNWFDYWGQGTLVTVSS
# VL: B1 VL with S26N, S28N, S30Y, R38Q, F50D, S51A, I58F
# notes: as for B1
# B3: 134H3G6 (TIM-3 antibody purified from hybridoma, chimeric antibody of Example 2) (antibody, V domains shown)
# VH: EVQLVESGGGLVQPGGSLRLSCAASGFTFSNSWMTWVRQAPGKGLEWVANIKQAGTEKYYVDSVKGRFTISRDNAKNSLYLQMNSLRAEDTAVYYCNSGSNYFDYWGQGTLVTVSS
# VL: B1 VL with T2I, S26R, S28N, V29F, S30Y, R38Q, F50G, S51A
# notes: as for B1
# B4: 215A8F2 (TIM-3 antibody purified from hybridoma, chimeric antibody of Example 2) (antibody, V domains shown)
# VH: QVQLQQWGAGLLKPSETLSLTCTVYGGSFSGYYWNWIRQPPGKGLEWLGEINHSGSTNYNPSLKRRVTISVDTSKNQFSLKLSSVTAADTAVYYCARVYYYGPFDFWGQGTLVTVSS
# VL: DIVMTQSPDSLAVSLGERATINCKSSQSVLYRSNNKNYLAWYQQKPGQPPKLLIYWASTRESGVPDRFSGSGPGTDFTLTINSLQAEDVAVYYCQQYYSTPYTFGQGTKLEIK
# notes: as for B1
# B5: 7A4F10 (TIM-3 antibody purified from hybridoma, chimeric antibody of Example 2) (antibody, V domains shown)
# VH: EVQLLESGGGLVQPGGSLRLSCAASGFTFRTHLISWVRQAPGKGLEWVAAITGSGGSTYYADSVKGRFIISRDNSKNTLFLQMNSLRAEDTAVYYCAKDGGSGSYDDFWGQGTLVTVSS
# VL: ETVLTQSPVTLSLSPGERATLSCRASQSVGSYLAWYQQKPGQAPRLLIYDASNRATGIPARFSGSGSGTDFTLTISSLEPEDFAVYYCQQRSNWPPTFGQGTKVEIK
# notes: as for B1
# B6: 134H3G6 fully human TIM-3 antibody (human IgG4, kappa) (antibody, V domains shown)
# VH: B3 VH
# VL: B1 VL with T2I, S26R, S28N, V29F, S30Y, R38Q, F50G, S51A
# B7: 18D2H2 fully human TIM-3 antibody (human IgG4, kappa) (antibody, V domains shown)
# VH: B2 VH
# VL: B1 VL with S26N, S28N, S30Y, R38Q, F50D, S51A, I58F
# B8: 215A8F2 fully human TIM-3 antibody (human IgG4, kappa) (antibody, V domains shown)
# VH: B4 VH
# VL: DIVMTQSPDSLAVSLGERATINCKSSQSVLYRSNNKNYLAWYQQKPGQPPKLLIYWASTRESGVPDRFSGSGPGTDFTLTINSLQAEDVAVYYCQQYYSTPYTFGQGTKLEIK
# B9: 7A4F10 fully human TIM-3 antibody (human IgG4, kappa) (antibody, V domains shown)
# VH: B5 VH
# VL: B5 VL
# Target: T1, human TIM-3, full length, on cells
# Test: FACS, CHOK1-hTIM-3 cells; antibody 40 nM
# Description: (§1) The pIRES plasmid containing the full-length nucleotide sequence encoding human TIM-3 as described in Example 1 was transfected into CHOK1 cell line to obtain a CHOK1 stable cell line containing human TIM-3 (herein referred to as CHOK1-hTIM-3 stable cell line). The pIRES plasmid containing the full-length gene of monkey TIM-3 was transfected into CHOK1 cell line to construct a CHOK1 stable cell line containing monkey TIM-3 (herein referred to as CHOK1-cTIM-3 stable cell line). The CHOK1-hTIM-3 stable cell line and CHOK1-cTIM-3 stable cell line were expanded to a confluence of 90% in a T-75 cell culture flask. The medium was aspirated, and the cells were washed with HBSS (Hanks' Balanced Salt Solution) 1-2 times, and then treated with an enzyme-free cell dissociation solution (Versene solution: Life technology) and the cells were collected. The cells were washed with HBSS buffer for 1-2 times. After counted, the cells were diluted with HBSS to 1-2×10⁶ cells per ml, added with 1% goat serum blocking solution, incubated on ice for 20-30 minutes, and then washed with HBSS by centrifugation 2 times. The collected cells were suspended in the FACS buffer (HBSS+1% BSA) to 2×10⁶ cells/ml, added as 100 microliters per well to a 96-well FACS reaction plate, added with 100 microliters per well of the antibody sample to be tested, incubated on ice for 1-2 hours. The plate was washed twice with the FACS buffer by centrifugation, added with 100 microliters of fluorescent (Alexa 488)-labeled secondary antibodies per well, and incubated on ice for 0.5-1.0 hours. The plate was washed 2-3 times with FACS buffer by centrifugation, added with 100 μl fixative solution (4% Paraformaldehyde) per well to suspend the cells. 5-10 minutes later, it was washed 1-2 times with FACS buffer by centrifugation. The cells were suspended with 100 microliters of FACS buffer, FACS (FACSCalibur, BD) was used for detection and the results were analyzed. The results are shown in FIGS. 7 and 8, Tables 7 and 8, wherein the IgG control is rat IgG, and the data in the table are the average fluorescence intensity values of the cell populations measured by MFI.
row,Mean fluorescence intensity,Binder
1,485,B1
2,185,B2
3,230,B3
4,610,B4
5,144,B5

# Target: T2, human TIM-3 extracellular domain …
# Test: FACS, blocking of hTIM-3-hFc binding to phosphatidylserine on apoptotic Jurkat cells, 66.667 nM antibody
# Method: (§2) Jurkat cells were treated with 1 μM staurosporine at 37° C. for 2 hours to induce apoptosis. The presence of phosphatidylserine was detected by Annexin V-FITC cell apoptosis detection kit. […] The cells were washed 1-2 times with PBS buffer, and after cell counting, the cells were diluted to 1-2×10⁶ cells per milliliter with binding buffer, and added to a 96-well FACS reaction plate at 100 microliters per well. The antibody sample to be tested and 2 μg/ml hTIM-3-hFc protein were prepared with binding buffer, and mixed equally in volume. The mixture was incubated at room temperature for 30 minutes, then the FACS reaction plate incubated with apoptotic cells was centrifuged to discard the supernatant, and the above mixture was added to the apoptotic cells at 100 microliters per well and incubated at room temperature for 1 hour. The plate was washed twice with the binding buffer by centrifugation, added with 100 microliters of fluorescent (Alexa 488)-labeled secondary antibodies per well, and incubated for half an hour. The plate was washed 2-3 times with the binding buffer by centrifugation, added with 100 microliters of PBS per well to suspend cells, and detected using FACS (FACS Calibur, BD) and the results were analyzed. The results are shown in Table 15 and FIG. 15, wherein the IgG control is human IgG, and the data in the table is the inhibition rate (%).
row,Inhibition ratio (%),Binder
1,52.3,B6
2,62.3,B7
3,57.2,B8
4,60.5,B9

# Target: T2, human TIM-3 extracellular domain …
# Test: FACS, blocking of hTIM-3-hFc binding to phosphatidylserine on apoptotic Jurkat cells, 7.407 nM antibody
# Method: as §2
row,Inhibition ratio (%),Binder
1,60.1,B6
2,64.9,B7
3,59.5,B8
4,62.4,B9

# Target: T2, human TIM-3 extracellular domain …
# Test: FACS, blocking of hTIM-3-hFc binding to phosphatidylserine on apoptotic Jurkat cells, 0.274 nM antibody
# Method: as §2
row,Inhibition ratio (%),Binder
1,8,B6
2,5.4,B7
3,0.3,B8
4,0.9,B9

# Target: T1, human TIM-3, full length, on cells
# Test: FACS, CHOK1-hTIM-3 cells; antibody 1.6 nM
# Description: as §1
row,Mean fluorescence intensity,Binder
1,390,B1
2,40.2,B2
3,50,B3
4,214,B4
5,15.4,B5

# Target: T1, human TIM-3, full length, on cells
# Test: FACS, CHOK1-hTIM-3 cells; antibody 0.32 nM
# Description: as §1
row,Mean fluorescence intensity,Binder
1,177,B1
2,15.6,B2
3,17.7,B3
4,55.6,B4
5,6.8,B5
